Measurements taken from US20100260668A1 (published 2010).

Biological target: T1, VEGF (UniProt P15692-4 27-191)
T1 construct: Bought reagent; also called vascular endothelial growth factor
Assay: SPR (Biacore), DVD-Ig captured, VEGF in solution

T1 sequence (P15692 other isoform, or with tags, fused parts or gaps limits assumed): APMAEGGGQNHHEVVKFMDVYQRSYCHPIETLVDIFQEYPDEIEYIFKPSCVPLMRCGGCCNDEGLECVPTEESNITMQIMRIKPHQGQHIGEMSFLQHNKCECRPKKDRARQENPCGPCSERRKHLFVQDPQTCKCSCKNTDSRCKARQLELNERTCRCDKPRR

Binder	Kd	koff	kon
DVD514 (bispecific antibody, human IgG1, lambda, DVD-Ig; N-term; VD AB070 (VEGF), C-term; VD AB073 (DLL4); HC linker short, LC linker short; also called DVD514H; DVD514L) heavy: not shown light: DIQMTQSPSSLSASVGDRVTITCRASQDVSTAVAWYQQKPGKAPKLLIYSASFLYSGVPSRFSGSGSGTDFTLTISSLQPEDFATYYCQQSYTTPPTFGQGTKVEIKRTVAAPQAVVTQESALTTSPGETVTLTCRSSTGAVTTSNYANWVQEKPDHLFTGLIGGTNNRAPGVPARFSGSLIGDKAALTITGAQTEDEAIYFCALWYSNHWVFGGGTKLTVLGQPKAAPSVTLFPPSSEELQANKATLVCLISDFYPGAVTVAWKADSSPVKAGVETTTPSKQSNNKYAASSYLSLTPEQWKSHRSYSCQVTHEGSTVEKTVAPTECS	1010 pM	0.000549 s⁻¹	541000 M⁻¹ s⁻¹
DVD526 (bispecific antibody, human IgG1, lambda, DVD-Ig; N-term; VD AB070 (VEGF), C-term; VD AB073 (DLL4); HC linker long, LC linker short; also called DVD526H; DVD526L) heavy: not shown light: DIQMTQSPSSLSASVGDRVTITCRASQDVSTAVAWYQQKPGKAPKLLIYSASFLYSGVPSRFSGSGSGTDFTLTISSLQPEDFATYYCQQSYTTPPTFGQGTKVEIKRTVAAPQAVVTQESALTTSPGETVTLTCRSSTGAVTTSNYANWVQEKPDHLFTGLIGGTNNRAPGVPARFSGSLIGDKAALTITGAQTEDEAIYFCALWYSNHWVFGGGTKLTVLGQPKAAPSVTLFPPSSEELQANKATLVCLISDFYPGAVTVAWKADSSPVKAGVETTTPSKQSNNKYAASSYLSLTPEQWKSHRSYSCQVTHEGSTVEKTVAPTECS	675 pM	0.000801 s⁻¹	1.19e+06 M⁻¹ s⁻¹
DVD450 (bispecific antibody, human IgG1, kappa, DVD-Ig; N-term; VD AB070 (VEGF), C-term; VD AB069 (DLL4); HC linker long, LC linker long; also called DVD450H; DVD450L) heavy: not shown light: DIQMTQSPSSLSASVGDRVTITCRASQDVSTAVAWYQQKPGKAPKLLIYSASFLYSGVPSRFSGSGSGTDFTLTISSLQPEDFATYYCQQSYTTPPTFGQGTKVEIKRTVAAPSVFIFPPDIVMTQSPDSLAVSLGERATISCRASESVDNYGISFMKWFQQKPGQPPKLLIYAASNQGSGVPDRFSGSGSGTDFTLTISSLQAEDVAVYYCQQSKEVPWTFGGGTKVEIKRTVAAPSVFIFPPSDEQLKSGTASVVCLLNNFYPREAKVQWKVDNALQSGNSQESVTEQDSKDSTYSLSSTLTLSKADYEKHKVYACEVTHQGLSSPVTKSFNRGEC	255 pM	0.00431 s⁻¹	1.69e+07 M⁻¹ s⁻¹
DVD462 (bispecific antibody, human IgG1, kappa, DVD-Ig; N-term; VD AB070 (VEGF), C-term; VD AB069 (DLL4); HC linker short, LC linker long; also called DVD462H; DVD462L) heavy: not shown light: DIQMTQSPSSLSASVGDRVTITCRASQDVSTAVAWYQQKPGKAPKLLIYSASFLYSGVPSRFSGSGSGTDFTLTISSLQPEDFATYYCQQSYTTPPTFGQGTKVEIKRTVAAPSVFIFPPDIVMTQSPDSLAVSLGERATISCRASESVDNYGISFMKWFQQKPGQPPKLLIYAASNQGSGVPDRFSGSGSGTDFTLTISSLQAEDVAVYYCQQSKEVPWTFGGGTKVEIKRTVAAPSVFIFPPSDEQLKSGTASVVCLLNNFYPREAKVQWKVDNALQSGNSQESVTEQDSKDSTYSLSSTLTLSKADYEKHKVYACEVTHQGLSSPVTKSFNRGEC	864 pM	0.000858 s⁻¹	993000 M⁻¹ s⁻¹
DVD466 (bispecific antibody, human IgG1, kappa, DVD-Ig; N-term; VD AB070 (VEGF), C-term; VD AB015 (DLL4); HC linker short, LC linker short; also called DVD466H; DVD466L) heavy: not shown light: DIQMTQSPSSLSASVGDRVTITCRASQDVSTAVAWYQQKPGKAPKLLIYSASFLYSGVPSRFSGSGSGTDFTLTISSLQPEDFATYYCQQSYTTPPTFGQGTKVEIKRTVAAPDIQMTQSPSSLSASVGDRVTITCRASQDVSTAVAWYQQKPGKAPKLLIYSASFLYSGVPSRFSGSGSGTDFTLTISSLQPEDFATTYYCQQSYTGTVTFGQGTKVEIKRTVAAPSVFIFPPSDEQLKSGTASVVCLLNNFYPREAKVQWKVDNALQSGNSQESVTEQDSKDSTYSLSSTLTLSKADYEKHKVYACEVTHQGLSSPVTKSFNRGEC	710 pM	0.000393 s⁻¹	553000 M⁻¹ s⁻¹
DVD478 (bispecific antibody, human IgG1, kappa, DVD-Ig; N-term; VD AB070 (VEGF), C-term; VD AB015 (DLL4); HC linker long, LC linker short; also called DVD478H; DVD478L) heavy: not shown light: DIQMTQSPSSLSASVGDRVTITCRASQDVSTAVAWYQQKPGKAPKLLIYSASFLYSGVPSRFSGSGSGTDFTLTISSLQPEDFATYYCQQSYTTPPTFGQGTKVEIKRTVAAPDIQMTQSPSSLSASVGDRVTITCRASQDVSTAVAWYQQKPGKAPKLLIYSASFLYSGVPSRFSGSGSGTDFTLTISSLQPEDFATTYYCQQSYTGTVTFGQGTKVEIKRTVAAPSVFIFPPSDEQLKSGTASVVCLLNNFYPREAKVQWKVDNALQSGNSQESVTEQDSKDSTYSLSSTLTLSKADYEKHKVYACEVTHQGLSSPVTKSFNRGEC	354 pM	0.000195 s⁻¹	552000 M⁻¹ s⁻¹
DVD472 (bispecific antibody, human IgG1, kappa, DVD-Ig; N-term; VD AB070 (VEGF), C-term; VD AB015 (DLL4); HC linker long, LC linker long; also called DVD472H; DVD472L) heavy: not shown light: DIQMTQSPSSLSASVGDRVTITCRASQDVSTAVAWYQQKPGKAPKLLIYSASFLYSGVPSRFSGSGSGTDFTLTISSLQPEDFATYYCQQSYTTPPTFGQGTKVEIKRTVAAPSVFIFPPDIQMTQSPSSLSASVGDRVTITCRASQDVSTAVAWYQQKPGKAPKLLIYSASFLYSGVPSRFSGSGSGTDFTLTISSLQPEDFATTYYCQQSYTGTVTFGQGTKVEIKRTVAAPSVFIFPPSDEQLKSGTASVVCLLNNFYPREAKVQWKVDNALQSGNSQESVTEQDSKDSTYSLSSTLTLSKADYEKHKVYACEVTHQGLSSPVTKSFNRGEC	201 pM	0.00024 s⁻¹	1.2e+06 M⁻¹ s⁻¹
DVD484 (bispecific antibody, human IgG1, kappa, DVD-Ig; N-term; VD AB070 (VEGF), C-term; VD AB015 (DLL4); HC linker short, LC linker long; also called DVD484H; DVD484L) heavy: not shown light: DIQMTQSPSSLSASVGDRVTITCRASQDVSTAVAWYQQKPGKAPKLLIYSASFLYSGVPSRFSGSGSGTDFTLTISSLQPEDFATYYCQQSYTTPPTFGQGTKVEIKRTVAAPSVFIFPPDIQMTQSPSSLSASVGDRVTITCRASQDVSTAVAWYQQKPGKAPKLLIYSASFLYSGVPSRFSGSGSGTDFTLTISSLQPEDFATTYYCQQSYTGTVTFGQGTKVEIKRTVAAPSVFIFPPSDEQLKSGTASVVCLLNNFYPREAKVQWKVDNALQSGNSQESVTEQDSKDSTYSLSSTLTLSKADYEKHKVYACEVTHQGLSSPVTKSFNRGEC	255 pM	0.0041 s⁻¹	1.61e+07 M⁻¹ s⁻¹
DVD444 (bispecific antibody, human IgG1, kappa, DVD-Ig; N-term; VD AB070 (VEGF), C-term; VD AB069 (DLL4); HC linker short, LC linker short; also called DVD444H; DVD444L) heavy: not shown light: DIQMTQSPSSLSASVGDRVTITCRASQDVSTAVAWYQQKPGKAPKLLIYSASFLYSGVPSRFSGSGSGTDFTLTISSLQPEDFATYYCQQSYTTPPTFGQGTKVEIKRTVAAPDIVMTQSPDSLAVSLGERATISCRASESVDNYGISFMKWFQQKPGQPPKLLIYAASNQGSGVPDRFSGSGSGTDFTLTISSLQAEDVAVYYCQQSKEVPWTFGGGTKVEIKRTVAAPSVFIFPPSDEQLKSGTASVVCLLNNFYPREAKVQWKVDNALQSGNSQESVTEQDSKDSTYSLSSTLTLSKADYEKHKVYACEVTHQGLSSPVTKSFNRGEC	162 pM	0.0038 s⁻¹	2.35e+07 M⁻¹ s⁻¹
DVD456 (bispecific antibody, human IgG1, kappa, DVD-Ig; N-term; VD AB070 (VEGF), C-term; VD AB069 (DLL4); HC linker long, LC linker short; also called DVD456H; DVD456L) heavy: not shown light: DIQMTQSPSSLSASVGDRVTITCRASQDVSTAVAWYQQKPGKAPKLLIYSASFLYSGVPSRFSGSGSGTDFTLTISSLQPEDFATYYCQQSYTTPPTFGQGTKVEIKRTVAAPDIVMTQSPDSLAVSLGERATISCRASESVDNYGISFMKWFQQKPGQPPKLLIYAASNQGSGVPDRFSGSGSGTDFTLTISSLQAEDVAVYYCQQSKEVPWTFGGGTKVEIKRTVAAPSVFIFPPSDEQLKSGTASVVCLLNNFYPREAKVQWKVDNALQSGNSQESVTEQDSKDSTYSLSSTLTLSKADYEKHKVYACEVTHQGLSSPVTKSFNRGEC	281 pM	0.00448 s⁻¹	1.6e+07 M⁻¹ s⁻¹
DVD520 (bispecific antibody, human IgG1, kappa, lambda, DVD-Ig; N-term; VD AB070 (VEGF), C-term; VD AB073 (DLL4); HC linker long, LC linker long; also called DVD520H; DVD520L) heavy: not shown light: DIQMTQSPSSLSASVGDRVTITCRASQDVSTAVAWYQQKPGKAPKLLIYSASFLYSGVPSRFSGSGSGTDFTLTISSLQPEDFATYYCQQSYTTPPTFGQGTKVEIKRTVAAPSVFIFPPQAVVTQESALTTSPGETVTLTCRSSTGAVTTSNYANWVQEKPDHLFTGLIGGTNNRAPGVPARFSGSLIGDKAALTITGAQTEDEAIYFCALWYSNHWVFGGGTKLTVLGQPKAAPSVTLFPPSSEELQANKATLVCLISDFYPGAVTVAWKADSSPVKAGVETTTPSKQSNNKYAASSYLSLTPEQWKSHRSYSCQVTHEGSTVEKTVAPTECS	817 pM	0.000961 s⁻¹	1.18e+06 M⁻¹ s⁻¹
DVD532 (bispecific antibody, human IgG1, kappa, lambda, DVD-Ig; N-term; VD AB070 (VEGF), C-term; VD AB073 (DLL4); HC linker short, LC linker long; also called DVD532H; DVD532L) heavy: not shown light: DIQMTQSPSSLSASVGDRVTITCRASQDVSTAVAWYQQKPGKAPKLLIYSASFLYSGVPSRFSGSGSGTDFTLTISSLQPEDFATYYCQQSYTTPPTFGQGTKVEIKRTVAAPSVFIFPPQAVVTQESALTTSPGETVTLTCRSSTGAVTTSNYANWVQEKPDHLFTGLIGGTNNRAPGVPARFSGSLIGDKAALTITGAQTEDEAIYFCALWYSNHWVFGGGTKLTVLGQPKAAPSVTLFPPSSEELQANKATLVCLISDFYPGAVTVAWKADSSPVKAGVETTTPSKQSNNKYAASSYLSLTPEQWKSHRSYSCQVTHEGSTVEKTVAPTECS	276 pM	0.0123 s⁻¹	4.47e+07 M⁻¹ s⁻¹
DVD501 (bispecific antibody, human IgG1, kappa, DVD-Ig; N-term; VD AB072 (DLL4), C-term; VD AB070 (VEGF); HC linker long, LC linker short; also called DVD501H; DVD501L) heavy: not shown light: DIQMTQSSSYLSVSLGGRVTITCKASDHINNWLAWYQQKPGNAPRLLISGATSLETGVPSRFSGSGSGKDYTLSITSLQTEDVATYYCQQYWSIPLTFGAGTKLELKRTVAAPDIQMTQSPSSLSASVGDRVTITCRASQDVSTAVAWYQQKPGKAPKLLIYSASFLYSGVPSRFSGSGSGTDFTLTISSLQPEDFATYYCQQSYTTPPTFGQGTKVEIKRTVAAPSVFIFPPSDEQLKSGTASVVCLLNNFYPREAKVQWKVDNALQSGNSQESVTEQDSKDSTYSLSSTLTLSKADYEKHKVYACEVTHQGLSSPVTKSFNRGEC	821 pM	0.000175 s⁻¹	213000 M⁻¹ s⁻¹
DVD507 (bispecific antibody, human IgG1, kappa, L234A L235A, DVD-Ig; N-term; VD AB072 (DLL4), C-term; VD AB070 (VEGF); HC linker short, LC linker long; also called DVD507H; DVD507L) heavy: not shown light: DIQMTQSSSYLSVSLGGRVTITCKASDHINNWLAWYQQKPGNAPRLLISGATSLETGVPSRFSGSGSGKDYTLSITSLQTEDVATYYCQQYWSIPLTFGAGTKLELKRTVAAPSVFIFPPDIQMTQSPSSLSASVGDRVTITCRASQDVSTAVAWYQQKPGKAPKLLIYSASFLYSGVPSRFSGSGSGTDFTLTISSLQPEDFATYYCQQSYTTPPTFGQGTKVEIKRTVAAPSVFIFPPSDEQLKSGTASVVCLLNNFYPREAKVQWKVDNALQSGNSQESVTEQDSKDSTYSLSSTLTLSKADYEKHKVYACEVTHQGLSSPVTKSFNRGEC	847 pM	0.000201 s⁻¹	238000 M⁻¹ s⁻¹
